{"source": "paper PMC8100869", "about": "(Biochemistry, 2020)", "proteins": {"B1": {"name": "Catabolite Activator Protein (CAP) (natural protein)", "chain": "VLGKPQTDPTLEWFLSHCHIHKYPSKSTLIHQGEKAETLYYIVKGSVAVLIKDEEGKEMILSYLNQGDFIGELGLFEEGQERSAWVRAKTACEVAEISYKKFRQLIQVNPDILMRLSAQMARRLQVTSEKVGNLAFLDVTGRIAQTLLNLAKQPDAMTHPDGMQIKITRQEIGQIVGCSRETVGRILKMLEDQNLISAHGKTIVVYGTR"}}, "biological_target": "the molecule itself", "test": "crystal structure", "data": [{"protein": "B1", "values": [{"measurement": "binding result", "result": "binds"}]}]}
